# Results: US20060246095A1, “Multiepitope polypeptides for cancer immunotherapy” (HADASIT MEDICAL RESEARCH SERVICES & DEVELOPMENT LTD., priority 2003, published 2006)
# Legend:
# [1] = system: TIL 1940 (A2 restricted MART-1 epitope 27-35); experiment: Recognition assay for peptide presentation by DC (IFN-γ release ELISA), TIL 1940; assay type: cell-based, human
# Method: (§1) Dendritic cells were isolated from cytopheresis MNCs of melanoma patients with the HLA haplotypes HIA-A*0201 and HLA-DRβ1*0401. DC were generated from plastic adherent PBMCs cultured in RPMI with 10% human AB-serum, L-glutamine, penicillin-streptomycin, supplemented with GM-CSF 1000 IU/ml and IL-4 1000 IU/ml. By day 6, immature DC were harvested for electroporation.
# (§2) 2.5-3×10^6 DC were re-suspended in 100 μl nucleofector solution and added to 5 μg of DNA plasmid in 2-mm electrode gap cuvettes. Transfected DC were immediately plated with CM containing GM/IL4 or let mature using TNFα 100 ng/ml and PGE2 1000 ng/ml. GFP-transfected DCs were collected 16-24 hours later for FACS analysis.
# (§3) DC were pulsed with 1 μg/ml of the relevant peptides at 1×10^6 cells/ml. Stimulants were added after 1 hour incubation without washing the peptide.
# TIL 1940 which recognizes the A2 restricted MART-1 epitope 27-35.
# T cell clones were co-incubated with DC in flat 96-well plate for 24 hours. DC were plated immediately after their transfection or pulsing in 6 separated plates, in the presence of GM CSF and IL-4. 1×10^5 T cells were added to 1×10^5 pulsed or transfected DC. In the longitudinal study, T cell clones were added to the transfected/pulsed DC at the following time points: T0=immediately, +12=after 12 hours, 24, 36, 48 and 72 hours. Supernatants were collected after overnight incubation. Interferon gamma release assay was performed to evaluate T cell stimulation using the ELISA method, results are presented in pg/ml.
# Lactacystin was added to DC at concentrations of 25 μM and 50 μM, 4 hours post transfection. DC were incubated with lactacystin for 70 minutes and then washed twice.
# Responding T cells were added after washing the lactacystin and co-incubated. Supernatents were collected after 20 hours.
# For recognition assay of DC epitope presentation, 1×10^5 cells from different T cell clones, that were grown from PBMCs of patients, and were restricted to particular melanoma antigen peptides, were co-incubated with 1×10^5 pulsed or transfected DC, in the presence of GM-CSF and IL-4. T cell clones were added to the transfected/pulsed DC at the following time points: T=0 immediately, T=12, 24, 36, 48, 72 hours. Supernatant was collected after overnight incubation and was subjected to interferon gamma release assay, in order to evaluate the specific T cell activity towards the particular peptide presented by the DC cells.
# The results shown in the following tables represent the amount of Interferon-γ (pg/ml) secreted to the culture medium as an index for T cell stimulation.
# [2] = system: T cell clone RB-154 (gp100 154-162 peptide); experiment: Recognition assay for peptide presentation by DC (IFN-γ release ELISA), clone RB-154; assay type: cell-based, human; details: T = 0 hours, RB-154
# Method: as §1, §2, §3
# T cell clones were co-incubated with DC in flat 96-well plate for 24 hours. DC were plated immediately after their transfection or pulsing in 6 separated plates, in the presence of GM CSF and IL-4. 1×10^5 T cells were added to 1×10^5 pulsed or transfected DC. In the longitudinal study, T cell clones were added to the transfected/pulsed DC at the following time points: T0=immediately, +12=after 12 hours, 24, 36, 48 and 72 hours. Supernatants were collected after overnight incubation. […]
molecule,measurement,setting,value
"MEP-mel: melanoma multiepitope polypeptide, SEQ ID NO: 2 or 57; in Tables 2-9 delivered by transfecting DC with pcDNA3-MEP-Mel plasmid (protein) PGTMGSCRKSYYLEPGPVTVRKSYLIMDQVPFSVRKSYLYMDGTMSQVRKSYLAGIGILTVRKSYYLEPGPVTVALLIMDQVPFSVALLYMDGTMSQVALLLAGIGILTVSSLYLEPGPVTVAAYIMDQVPFSVSSLYMDGTMSQVAAYLAGIGILTV",Interferon-γ secreted to the culture medium,"[1]; transfected DC from donor 1, T = 0 hours, TIL 1940",>2000 pg/mL
same,Interferon-γ secreted to the culture medium,"[1]; transfected DC from donor 2, T = 0 hours, TIL 1940",>2000 pg/mL
same,Interferon-γ secreted to the culture medium,"[1]; transfected DC, Lactacystin 0, TIL1941",432 pg/mL
same,Interferon-γ secreted to the culture medium,"[1]; transfected DC, Lactacystin 25 μM, TIL1941",62 pg/mL
same,Interferon-γ secreted to the culture medium,"[1]; transfected DC, Lactacystin 50 μM, TIL1941",45 pg/mL
same,Interferon-γ secreted to the culture medium,"[1]; transfected or peptide-pulsed DC, Donor 1, T = 12 hours, TIL 1940",>2000 pg/mL
same,Interferon-γ secreted to the culture medium,"[1]; transfected or peptide-pulsed DC, Donor 1, T = 24 hours, TIL 1940",>2000 pg/mL
same,Interferon-γ secreted to the culture medium,"[1]; transfected or peptide-pulsed DC, Donor 1, T = 36 hours, TIL 1940",>2000 pg/mL
same,Interferon-γ secreted to the culture medium,"[1]; transfected or peptide-pulsed DC, Donor 1, T = 48 hours, TIL 1940",>2000 pg/mL
same,Interferon-γ secreted to the culture medium,"[1]; transfected or peptide-pulsed DC, Donor 1, T = 72 hours, TIL 1940",>2000 pg/mL
same,Interferon-γ secreted to the culture medium,"[1]; transfected or peptide-pulsed DC, Donor 2, T = 12 hours, TIL 1940",>2000 pg/mL
same,Interferon-γ secreted to the culture medium,"[1]; transfected or peptide-pulsed DC, Donor 2, T = 24 hours, TIL 1940",>2000 pg/mL
same,Interferon-γ secreted to the culture medium,"[1]; transfected or peptide-pulsed DC, Donor 2, T = 36 hours, TIL 1940",>2000 pg/mL
same,Interferon-γ secreted to the culture medium,"[1]; transfected or peptide-pulsed DC, Donor 2, T = 48 hours, TIL 1940",>2000 pg/mL
same,Interferon-γ secreted to the culture medium,"[1]; transfected or peptide-pulsed DC, Donor 2, T = 72 hours, TIL 1940",>2000 pg/mL
same,Interferon-γ secreted to the culture medium,[2]; transfected DC from donor 1,66 pg/mL
same,Interferon-γ secreted to the culture medium,[2]; transfected DC from donor 2,132 pg/mL
